# US20130129730A1 (Amgen, published 2013)
# T1: human EpCAM (human, UniProt P16422 24-314)
# T1 construct: whole, on cells; also called Epithelial cell adhesion molecule; CD326
# T1 sequence (looked up): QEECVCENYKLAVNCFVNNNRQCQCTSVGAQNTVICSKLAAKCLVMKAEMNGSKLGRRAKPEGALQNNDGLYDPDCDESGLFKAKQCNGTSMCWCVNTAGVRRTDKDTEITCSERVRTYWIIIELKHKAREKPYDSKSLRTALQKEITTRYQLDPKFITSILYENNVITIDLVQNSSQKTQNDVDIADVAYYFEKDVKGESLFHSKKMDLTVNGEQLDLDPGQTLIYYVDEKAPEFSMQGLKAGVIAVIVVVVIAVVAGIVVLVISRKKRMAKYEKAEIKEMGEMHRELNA
# Target: T1, human EpCAM
# Test: flow cytometry, scFv periplasmic preparation on human EpCAM transfected CHO cells
# Description: Periplasmic preparations of E. coli clones producing the scFv molecules EpCAM 4-7, PM74-G3, PM52-H3, PM52-C3, PM75-A10 and PM91-B6 are used to examine specific binding to human PSMA or human EpCAM transfected cell lines. As negative control untransfected CHO cell are used.
# For flow cytometry 2,5×10⁵ cells are incubated with 50 μl of scFv periplasmic preparation. The binding of scFv to the cells is detected with an anti-His antibody (Penta-His Antibody, BSA free, Qiagen GmbH, Hilden, FRG) at 2 μg/ml in 50 μl PBS with 2% FCS. As a second step reagent a R-Phycoerythrin-conjugated affinity purified F(ab′)2 fragment, goat anti-mouse IgG (Fc-gamma fragment specific), diluted 1:100 in 50 μl PBS with 2% FCS (Dianova, Hamburg, FRG) is used. The samples are measured on a FACSscan (BD biosciences, Heidelberg, FRG).
# Flow cytometry is performed on a FACS-Calibur apparatus; the CellQuest software is used to acquire and analyze the data (Becton Dickinson biosciences, Heidelberg). FACS staining and measuring of the fluorescence intensity are performed as described in Current Protocols in Immunology (Coligan, Kruisbeek, Margulies, Shevach and Strober, Wiley-Interscience, 2002).
row,Binder,binding result
1,"scFv PM52-C3 (scFv, Tested as periplasmic preparation from E. coli; also called PM52C3-VH-VL; not shown: His6-tag) scFv: QVQLVQSGAEVKKPGASVKLSCKASGYTFTYFDINWVRQTPEQGLEWMGGISPGDGNTNYNENFKGRVTMTRDTSSSTAYMELSRLRSDDTAVYYCARDGNFPYYAMDSWGQGTTVTVSSGGGGSGGGGSGGGGSDVVMTQSPLSLPVTLGEPASISCRSSQSLVYSNGNTYLHWYQQKPGQSPRLLIYKVSNRFSGVPDRFSGSGSGTDFTLKISRVEAEDVGVYFCSQSTHVPYTFGQGTKLEIKDYKDDDDK",no binding
2,"scFv PM52-H3 (scFv, Tested as periplasmic preparation from E. coli; also called PM52H3-VH-VL; not shown: His6-tag) scFv: QVQLVQSGAEVKKPGASVKLSCKASGYTFTYFDINWVRQTPEQGLEWMGGISPGDGNTNYNENFKGRVTMTRDTSKSTAYMELSRLRSDDTAVYYCARDGNFPYYAMDSWGQGTTVTVSSGGGGSGGGGSGGGGSDVVMTQSPLSLPVTLGEPASISCRSSQSLVYSNGNTYLHWYQQKPGQSPRLLIYKVSNRFSGVPDRFSGSGSGTDFTLKISRVEAEDVGVYFCSQSTHVPYTFGQGTKLEIKDYKDDDDK",no binding
3,"scFv PM75-A10 (scFv, Tested as periplasmic preparation from E. coli; also called PM75A10-VH-VL; not shown: His6-tag) scFv: QVQLVQSGAEVKKPGASVKLSCKASGYTFTYFDINWVRQTPEQGLEWMGGISPGDGNTNYNENFKGRVTMTRDTSSSTAYMELSRLRSDDTAVYYCARDGNFPYYAMVNWGQGTTVTVSSGGGGSGGGGSGGGGSDVVMTQSPLSLPVTLGEPASISCRSSQSLVYSNGNTYLHWYQQKPGQSPRLLIYKVSNRFSGVPDRFSGSGSGTDFTLKISRVEAEDVGVYFCSQSTHVPYTFGQGTKLEIKDYKDDDDK",no binding
4,"scFv PM91-B6 (scFv, Tested as periplasmic preparation from E. coli; also called PM91B6-VH-VL; not shown: His6-tag) scFv: QVQLVQSGAEVKKPGASVKLSCKASGYTFTYFDINWVRQTPEQGLEWMGGISPGDGNTNYNENFKGRVTMTRDTSSSTAYMELSRLRSDDTAVYYCARDGNFPYYALTNWGQGTTVTVSSGGGGSGGGGSGGGGSDVVMTQSPLSLPVTLGEPASISCRSSQSLVYSNGNTYLHWYQQKPGQSPRLLIYKVSNRFSGVPDRFSGSGSGTDFTLKISRVEAEDVGVYFCSQSTHVPYTFGQGTKLEIKDYKDDDDK",no binding
5,"scFv PM74-G3 (scFv, Tested as periplasmic preparation from E. coli; also called PM74G3-VH-VL; not shown: His6-tag) scFv: QVQLVQSGAEVKKPGASVKLSCKASGYTFTYFDINWVRQAPEQGLEWMGGISPGDGNTNYNENFKGRVTMTIDTSSSTAYIELSRLTSDDTAVYYCARDGNFPYYAMDSWGQGTTVTVSSGGGGSGGGGSGGGGSDVVMTQTPLSLPVSLGDQASISCRSSQSLVHSNGNTYLHWYLQKPGQSPKLLIYKVSNRFSGVPDRFSGSGSGTDFTLKISRVEAEDLGVYFCSQSTHVPYTFGGGTKLEIKDYKDDDDK",no binding
